Publication PMC7275063, “Rab35-regulated lipid turnover by myotubularins represses mTORC1 activity and controls myelin growth” (Nature Communications, 2020)

Biological target: eGFP-Rab35CA (Q67L), GTP-locked, constitutively active (mouse, UniProt Q6PHN9 1-201, Q67L)
Assay: co-IP; eGFP-Rab35CA or -DN captured on eGFP-Trap_MA beads from lysates of HEK293T cells co-expressing MTMR13 constructs, 24 h after transfection; 90 min at 4 °C; immunoblot
Conditions: partners not purified

Chain of eGFP-Rab35CA (Q67L), GTP-locked, constitutively active (Q6PHN9 whole entry Q67L): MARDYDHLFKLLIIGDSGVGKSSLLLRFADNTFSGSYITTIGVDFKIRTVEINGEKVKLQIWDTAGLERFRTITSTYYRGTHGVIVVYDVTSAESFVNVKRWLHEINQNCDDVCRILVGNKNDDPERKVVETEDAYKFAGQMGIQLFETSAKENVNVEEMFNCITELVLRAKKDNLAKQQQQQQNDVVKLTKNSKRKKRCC

ratio of FLAG-MTMR13 bound to CA over DN: 11.6
B1: N-terminally FLAG-tagged MTMR13 (natural protein)
chain: not shown
notes: MTMR13 (SBF2), full length, printed as aa1-1848, 5547 bp; other constructs end at aa1849; Gift plasmid in pcDNA3.1; the printed length of 1849 codons fits the human protein; also called FLAG-MTMR13; source: HEK293T, transfected, in lysate; not shown: FLAG, N-terminal, kept
